Reference: publication PMC7331476

Target: recombinant PD-L1, His tagged (human, UniProt Q9NZQ7 19-239)
Test: pull-down

Chain of recombinant PD-L1, His tagged (Q9NZQ7 19-239): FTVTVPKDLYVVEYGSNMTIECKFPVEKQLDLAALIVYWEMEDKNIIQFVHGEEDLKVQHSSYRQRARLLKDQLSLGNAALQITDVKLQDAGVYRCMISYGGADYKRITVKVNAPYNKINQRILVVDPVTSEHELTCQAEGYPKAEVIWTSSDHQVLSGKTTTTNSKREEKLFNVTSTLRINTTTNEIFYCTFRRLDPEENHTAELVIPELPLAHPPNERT

B1: XQ-P3 biotinylated (ssDNA)
DNA: ACCGACCGTGCTGGACTCATCTCGCTTTTTTCACGGTCCACACTACTATGAGCGAGCCTGGCG
modifications: biotin
- binding result: binds
